In PMC4512291 one finds Kd data, which are given here for two substances.

One experiment deals with e6ap peptide. Nature of the experiment: ITC. (Isothermal titration calorimetry measures the heat released or taken up as one component is titrated into another.)
Experiment [1] deals with E6 F47R 4C4S, a soluble mutant of HPV16 E6 (HPV16). Nature of the experiment: ITC.

pKd: −log10 of the molar value.

In the case of “E6 F47R 4C4S, a soluble mutant of HPV16 E6 (natural protein)”, the pKd with e6ap peptide was less than 5.00.

For the substance “LxxLL peptide (E6-binding LxxLL motif of E6AP)”, the pKd in experiment [1] is 4.38.

What is called pKd is the Kd on a negative log10 scale, so that one unit is a factor of ten.
